According to the RNAGym collection of RNA variant scans (doi:10.7554/elife.90254):

B1: LINE1-full (parent)
chain: UACGUAGGUGGUUUUCCCCUGAUAGUGCUAAGGGGGCCUGGAAGUUUGGACUGGGCAGAGCUCAACACAGCGUGGCAAAGUGGCUGUGGCUAGACUGCCUCUCUGGAUUCCUCGUCACUCAGCAGGGCAUCUCUGAGAGAAAUGCC

Variants of: B1
Test: self-cleavage, relative activity (ratio to wild type); higher = more cleavage; in vitro, sequencing; the parent is a self-cleaving ribozyme

Variant	self-cleavage
C68A C133A	0.02
A67G G86A	0.05
A67U U87A	0.57
A69G A77U	0.58
A69G A77G	0.6
A69G A77C	0.61
C71U U143C	0.64
G70U A92G	0.08
C71U U130C	1
G70A A141G	0.17
A69C U85C	0.03
A67G C95A	0.07
A67G G72A	0.21
G70U U102A	0.11
G72C C90U	0.03
A69G U100A	0.17
A69G U100C	0.98
A69G U119C	0.64
A69G U119A	0.65
C68U	0.13
C68G	0.05
C68A	0.04
G72A A77U	1.44
G70U U112C	0.06

Variant	self-cleavage
G70U U112A	0.05
A67U A78G	0.08
G70A U130A	0.15
A67G C98U	0.06
A69U A141U	0.05
C71U A79U	0.74
A69G C71U	0.1
G72U U81C	1.28
A69U U108C	0.06
A69U U81A	0.01
A67G A79G	0.5
G72U A142G	0
U73A A142G	1.57
U73A A142U	1.41
A67U A136C	0.03
A67G U104A	0.36
A69C U132C	0
A69C U132A	0.2
C68G U134G	0.04
A69G G93U	0.01
A69U U109G	0
A69U U109C	0.06
A67U U134C	0.16
U73A A136G	1.61

Variant	self-cleavage
C68U U85A	0.03
C68U U85C	0.03
G72A U143A	1.85
A69C U134C	0.03
G72A G137A	0.46
C71G A140U	0.53
G70U G97A	0.01
A67G C99A	0.17
A69G G106A	0.61
U73A A140U	1.88
C68U U96C	0.04
A69G A107U	0
A69C G83A	0.02
A69G U81C	0.54
A69G U81A	0.38
A67U C110U	0.14
A67U C131U	0.08
A67C U109C	0.06
A69G C146A	0.77
A69U U96C	0.03
A69U A77G	0.07
A69U A77U	0.06
C68U U104A	0.03
A67U G106A	0.15

Variant	self-cleavage
A69G C76U	0.69
C71U G75A	0.59
A69U A142G	0.06
A67U A94G	0.02
A67G A138U	0.56
A67G A138G	0.67
A67U U112C	0.09
C68U A78U	0.37
A67G C76U	0.62
A69U C116A	0.05
G70C G144A	0.15
A67U U108C	0.29
A67U G72A	0.13
A69U A140G	0.04
A67G G144A	0.69
G70A A94G	0.07
C71A G83U	0.58
A67U U100C	0.27
C68U A92G	0.05
A67G U132A	0.64
A69G C128U	0.63
A67U U132C	0.16
A67U U132A	0.11
C71A U130A	0.17

Variant	self-cleavage
A67U C101A	0.09
G70C	0.15
G70A	0.1
G70U	0.05
A69G C113U	0.41
A69G C113A	0.48
A69G A124U	0
A67G G82A	0.23
G72U U85G	0.1
A69U U119C	0.06
A69U U119A	0.03
A69G A78G	0.25
G72A G88A	0.03
A67G U109A	0.43
A67G U85C	0.1
A67G U85A	0.08
A67G U85G	0.12
A67U A92U	0.05
A67U A92G	0.04
U73A A141G	1.74
C68U A69G	0.11
A67U U96C	0.07
A67G U73A	0.24
A67G U73C	0.66

Variant	self-cleavage
A67G U108A	0.5
A67G U108C	0.6
A69G U73A	0.28
C71A U108C	0.43
A69G U143A	0.31
A69G U143C	0.5
A67C U130C	0.04
G72A U115C	0.9
C71A C128U	0.18
A67G A77G	0.91
G72A U87C	0.25
A67G C103U	0.25
C71U C120U	2.76
A67G A140G	0.42
A69U G80A	0.3
A69U G80U	0.03
G70A A138G	0.21
G72U U134C	1.24
A69G U108C	0.68
C71U A78G	0.41
A69U A92G	0.03
A69U U102C	0.06
G70U U91C	0.03
C71A A129G	0.23

Variant	self-cleavage
A69C A142C	0.13
A67G C101U	0.75
A69G A79G	0.31
A69G A129G	0.58
A67G A121C	0.62
A67U A129G	0.08
A67G A69U	0.06
A67G A69C	0.37
A69U U143C	0.07
A69U U143A	0.04
C71G A77G	0.4
G72A U102C	0.46
C71U U132C	1.05
G72A U130C	1.85
A67U A121U	0.12
U73A A77G	2.29
G72C A136G	1.41
C71U A138U	1.04
G72U U87A	0.03
A69U U91A	0.05
A69U U91C	0.06
C71A U132C	0.15
U73A A94C	0.05
U73A A94G	0.35

Variant	self-cleavage
G72U U115C	1.31
A67U U85A	0.05
A67G C68U	0.04
A69U U104C	0.05
G72A A78U	1.81
G72A A78G	1.14
A69G C123U	0.45
A67G C110U	0.46
A69G G89A	0.03
U73A A107G	2.03
A67G U134A	0.39
C68U U130C	0.19
A69U A129G	0.07
A69U A129U	0.06
A69G G125A	0.72
A67G C118A	0.58
U73A A92U	0.8
U73A A92G	0.13
A69G G97U	0.07
C68U U134A	0.18
A69C C76U	0.08
C71U A121U	0.93
U73A A78C	2.67
U73A A78U	1.94

Variant	self-cleavage
U73A A78G	0.34
G72A U85C	0.08
A69G C145A	0.71
C71A G122A	0.12
A67G U143C	0.57
A67G U143A	0.42
G72U A121U	1.08
G72U A121G	1.32
A69G C120U	0.44
A69U A94G	0.02
A67U C90G	0.04
G70A A79G	0.1
A67G U100A	0.06
A69C A141G	0.07
C71U A77G	0.86
A69G U87C	0.07
A69G U87G	0.48
A69G U87A	0.03
G72A A117U	1.54
C71A C145U	0.18
C71U C76U	1.15
A69G A136C	0.49
C71U A140G	0.9
C68U A136G	0.36

Variant	self-cleavage
A67G A124G	0.26
C71U U115C	1.12
C71U U115G	1.23
U73A C84U	0.16
A69G U85A	0.09
A67G G74U	0.54
A67U C99A	0
C68U U132C	0.25
A69G A92U	0.13
A69G A92G	0.23
U73A A124U	1.4
A69U C71U	0.02
A67U U130C	0.15
A69U A79G	0.05
A69U G126A	0.05
U73A A117U	1.81
A69G G83A	0.18
A69G G83U	0.15
A69U G88A	0.01
A67G G83C	0.13
C71U U96A	0.04
C71U U96C	0.05
A69U C118U	0.01
A67G G135A	0.68

Variant	self-cleavage
A67U U81C	0.13
A67U G89A	0.03
C68U G135A	0.22
C71U U87C	0.04
A69G C99G	0
A69C A121U	0.04
A69C A121G	0.11
G70C C90A	0.02
G72U U91C	0.49
G72U U91A	0.49
A69C U81C	0
C71U C90A	0.04
G72A G122A	1.6
A69C G88A	0.01
A67G U81A	0.63
G72C U108G	0.96
A67G C131A	0.72
A67G C131G	0
C71U C99G	0.12
C68U A138G	0.17
G72A U104A	0.93
G72A U96A	0.04
G70C U108C	0.29
A69C C131A	0.09

Variant	self-cleavage
A67U U73A	0.05
A67G A78U	0.65
A69C A78G	0.1
A69G A94U	0.13
A69G A94G	0.14
A69U U112A	0.04
A69U U112C	0.06
A67U U91C	0.05
A67U U91A	0.08
G72U U143C	1.02
A67U A69G	0.03
G70A U100A	0.05
A67G G106U	0.33
G70U U119A	0.03
G70U U119C	0.07
G72U	0.9
G72C	1.18
G72A	1.3
A69U G97C	0
C68A G88A	0.01
A69G G144A	1.02
G72U A129G	1.08
G70A A136U	0.16
A69G C111U	0.47

Variant	self-cleavage
U73A A79U	2.48
A67U A117G	0.19
A69U A117G	0.08
A67U A138G	0.13
A67U A138U	0.15
A67U G88A	0.03
A69G C90A	0
A69G C90U	0.07
G70C U102A	0.07
A67U A107U	0.04
A67U G83A	0.03
C68U A107U	0.19
C68U A107G	0.12
A69U C95A	0.02
A69U A107U	0.04
A69U A107G	0.08
A69G C84G	0.06
A69U G82A	0.14
C71U A92G	0.06
G70C A142G	0.14
C68U A129C	0.22
C71U C111U	0.82
A69U U130G	0.09
G72A C90G	0.03

Variant	self-cleavage
C68U U143C	0.22
G72A A94U	0.06
A69U U85C	0
G70A U115C	0.16
G72A U134A	1.15
G72U U73C	0.9
A69G U91C	0
A69G U109C	0.29
C71G U112C	0.37
G70A G80A	0.48
C71G U81C	0.27
C71G U81A	0.28
C71A U115A	0.16
A69U A124G	0.05
A69U A124U	0.09
C71U A117U	0.98
A69U A138G	0.07
C71A A138G	0.33
A69G G105A	0.62
A67C U134A	0.02
A67C U134C	0.09
A67C U104G	0.14
